Source: patent US20220017583A1

Biological target: amyloid β (1-28) (UniProt P05067)
Assay: trapping on beads in buffer, eluate by MALDI-TOF MS; ratio of detection limits

Chain of UniProt P05067 (P05067 672-699 limits assumed): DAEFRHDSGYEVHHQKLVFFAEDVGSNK

Substance: 6E10 F(ab′)-PEG24 beads (Fab)
- fold sensitivity against the IgG-protein G beads of each kind: 5 times
